Assay results from publication PMC9615034.
Where “and” joins values, the source holds several entries; their conditions need not be identical. Equal values may be shown once. Read-outs that look alike come from different tables or passages of the source.

Assays:
[1] = biological target: myeloperoxidase (Homo sapiens) (UniProt P05164); settings: cited from earlier work
[2] = biological target: Myeloperoxidase (native) (Homo sapiens) (UniProt P05164); test: SPR; settings: cited from earlier work
[3] = biological target: myeloperoxidase (Homo sapiens) (UniProt P05164); test: SPR; settings: cited from earlier work
[4] = biological target: myeloperoxidase (Homo sapiens) (UniProt P05164); settings: cited from earlier work; remark: listed apart in the source
[5] = biological target: mature dimeric human leukocyte myeloperoxidase (human) (UniProt P05164); test: ITC; 10 μM MPO in the cell, 150 μM SPIN variant as titrant, 19 injections of 3 μl; 50 mM phosphate buffer pH 7.4 or pH 5; one-site binding model
[6] = biological target: biotinylated native human leukocyte myeloperoxidase (human) (UniProt P05164); test: SPR; Biacore T200; biotinylated native MPO reversibly immobilised on a CAP chip (Biotin CAPture kit) to 500 RU; SPIN variants injected, 2-64 nM (legend: 32-2 nM), single cycle kinetics; RT; PBS, 0.05% Tween 20, 0.1% BSA; two-state model for SPIN-aureus, 1:1 model for SPIN-truncated
[7] = biological target: mature dimeric human leukocyte myeloperoxidase (human) (UniProt P05164)
[8] = biological target: mature dimeric human leukocyte myeloperoxidase (human) (UniProt P05164); remark: listed apart in the source

With SPIN-aureus (from UniProt A0A0H3K703) as the molecule, how does the Kd [1] read?
Its Kd is 10 nM.

And the Kd [2]?
Its Kd is 15.9 nM and 9.3 nM.

And the Kd [3]?
Its Kd is 11.8 nM.

Which results are given for “SPIN-truncated CTD (from UniProt A0A0H3K703)”?
Kd [2]: 29.8 nM; Kd [3]: 35.1 nM

Which Kd [4] does the source give for “SPIN-truncated C-terminal domain (from UniProt A0A0H3K703)” here?
The Kd was 10 nM.

B1: SPIN-truncated (domain or fragment)
chain: LEHELSYIDVLLDKNADQATKDNLRSYFADKGLHSIKDIINKAKQDGFDVSKYEHVK
Which results are given for B1?
Kd [5]: 5.9 nM; dH [5]: -17.4 kcal/mol; Kd [6]: 21 nM; koff [6]: 0.016 s⁻¹; kon [6]: 110000 M⁻¹ s⁻¹

B2: SPIN-aureus (Staphylococcal Peroxidase Inhibitor from Staphylococcus aureus) (natural protein)
chain: SQNGLVLHDDANFLEHELSYIDVLLDKNADQATKDNLRSYFADKGLHSIKDIINKAKQDGFDVSKYEHVK
Which results are given for B2?
shift of the Tm of MPO by DSC, MPO with SPIN-aureus against MPO alone, pH 5 [7]: 5 °C; shift of the Tm of MPO by DSC, MPO with SPIN-aureus against MPO alone, pH 7.4 [7]: 1.5 °C; half maximal inhibition time IT50 of the bromination activity of MPO, first phase (incubation 0-5 min, ∼80% total inhibition) [8]: 2.4 s; half maximal inhibition time IT50 of the bromination activity of MPO, second phase (incubation 5-120 min) [8]: 24 min; inhibition of the bromination activity of MPO (MCD assay, pH 5) after preincubation with SPIN-aureus for 0 to 120 min [8]: 99.5%; Kd [6]: 0.005 nM; koff1 (two-state model, first step) [6]: 0.005 s⁻¹; koff2 (two-state model, second step) [6]: 3.5e-06 s⁻¹; kon1 (two-state model, first step) [6]: 590000 M⁻¹ s⁻¹
